Results: patent US20220025069A1
Read-outs that look alike come from different tables or passages of the source.

Key:
[1] = target: human HER2, cell-surface-expressed on KPL4 and NCI-N87 cells (human) (UniProt P04626); test: flow cytometry, NCI-N87 cells, gMFI curve
[2] = target: human 4-1BB (CD137), cell-surface-expressed on Jurkat-hu4-1BB-NFkB-luc2 reporter cell line (human) (UniProt Q07011); test: flow cytometry, Jurkat-hu4-1BB-NFkB-luc2 cells, gMFI curve
[3] = target: human 4-1BB (CD137), cell-surface-expressed on Jurkat-hu4-1BB-NFkB-luc2 reporter cell line (human) (UniProt Q07011); test: cell-based or functional assay; set-up: unit not given beside the values
[4] = target: human Fibroblast Activation Protein (FAP), cell-surface-expressed on NIH/3T3-huFAP clone 19 cells (human) (UniProt Q12884); test: flow cytometry, NIH/3T3-huFAP clone 19 cells, gMFI curve
[5] = target: human HER2, cell-surface-expressed on KPL4 and NCI-N87 cells (human) (UniProt P04626); test: flow cytometry, KPL4 cells, gMFI curve
[6] = target: human 4-1BB (CD137), cell-surface-expressed on Jurkat-hu4-1BB-NFkB-luc2 reporter cell line (human) (UniProt Q07011); test: flow cytometry, Jurkat-hu4-1BB-NFkB-luc2 cells, gMFI curve; remark: listed apart in the source
[7] = target: human 4-1BB (CD137), cell-surface-expressed on Jurkat-hu4-1BB-NFkB-luc2 reporter cell line (human) (UniProt Q07011); test: cell-based or functional assay; set-up: AUC of activation curve, NFκB-luciferase in Jurkat-hu4-1BB-NFκB-luc2, crosslinking by WM-266-4 cells: unit not given beside the values

Area under the curve (AUC) of binding curve [1]: 1130
Area under the curve (AUC) of binding curve [2]: 101
AUC of activation curve, NFκB-luciferase in Jurkat-hu4-1BB-NFκB-luc2, crosslinking by KPL4 cells [3]: 253
AUC of activation curve, NFκB-luciferase in Jurkat-hu4-1BB-NFκB-luc2, crosslinking by NCI-N87 cells [3]: 127
AUC of activation curve, NFκB-luciferase in Jurkat-hu4-1BB-NFκB-luc2, crosslinking by SK-Br3 cells [3]: 129
Area under the curve (AUC) of binding curve [4]: 362
Area under the curve (AUC) of binding curve [5]: 177
Area under the curve (AUC) of binding curve [6]: 87
AUC of activation curve, NFκB-luciferase in Jurkat-hu4-1BB-NFκB-luc2, crosslinking by NIH/3T3-huFAP clone 19 cells [7]: 195
AUC of activation curve, NFκB-luciferase in Jurkat-hu4-1BB-NFκB-luc2, crosslinking by WM-266-4 cells [7]: 191
Substance: DP47 huIgG1 PG LALA (antibody)
